{
  "source": "patent US9359418B2",
  "about": "“Inhibitors of the T cell-specific alternative p38 activation pathway and methods of use” (The United States of America, as represented by the …, priority 2012, dated 2016)",
  "target": "recombinant p38α (Homo sapiens, UniProt Q16539)",
  "sequence (Q16539 whole entry, the tested form may be a part)": "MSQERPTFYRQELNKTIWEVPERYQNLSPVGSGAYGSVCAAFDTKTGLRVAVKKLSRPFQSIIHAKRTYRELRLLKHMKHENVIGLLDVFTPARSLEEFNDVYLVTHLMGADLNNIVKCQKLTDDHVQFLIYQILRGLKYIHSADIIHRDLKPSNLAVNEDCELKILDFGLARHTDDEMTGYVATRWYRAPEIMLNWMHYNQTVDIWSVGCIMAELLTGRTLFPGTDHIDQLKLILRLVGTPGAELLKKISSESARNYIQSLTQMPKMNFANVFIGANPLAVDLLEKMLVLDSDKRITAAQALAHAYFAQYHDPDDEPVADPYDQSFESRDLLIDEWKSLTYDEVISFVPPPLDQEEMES",
  "assay": "GST pull-down of recombinant p38α by truncated Gadd45α portions",
  "format": "binding",
  "details": "Gadd45α portions fused to GST, in vitro",
  "excerpt": "This example describes a Gadd45α 71-85 polypeptide fused to a cell-penetrating peptide (11R) and its ability to block the T cell-specific alternative p38 activation pathway. The minimal region of Gadd45α capable of binding to p38 was identified by fusing various truncated portions of Gadd45α to GST and using the product to pull down recombinant p38α in vitro.",
  "note": "No end group written: not given here.",
  "data": [
    {"substance": "71-85 fragment: residues 71-85 of Gadd45α fused to GST, used to pull down recombinant p38α (LQIHFTLIQAFCCEN; cysteine pairing not given here; also: fused to GST; UniProt P24522 71-85, looked up, fragment)", "values": [
      {"measurement": "pull down of recombinant p38α", "value": "pulled down p38α as well as the full length protein"}
    ]}
  ]
}
